According to the DeepSol protein solubility set:

experiment: soluble on expression in E. coli; label from the status in PepcDB or PDB records

Sequence	soluble on expression in E. coli
MGSDKIHHHHHHMNILITGMAGFIGHAVAKRLAAEGHDIVGIDNLNDYYDVSLKQARLDDLAAWPNVRFERLDLADRAGMERLFADTRFERVIHLAAQAGVRYSLDNPHVYAQSNLVGHLNVLEGCRHQQVPHLIYASSSSVYGQNAQVPFSTADAVDHPISLYAATKKANELMTHSYSHLYGIPATGLRFFTVYGPWGRPDMAMFKFTRAILADEPLPVFNHGDLSRDFTYIDDIVEGVVRIMQAIPEADPDSPGASPDQSTAPFALYNIGHGSPVALMDFVHALERATGRTARCDFKPMQPGDVPRTWADTDALFEKVGYRPQVGVDEGVARFVEWYRSFHGI	not soluble
MGSDKIHHHHHHMNSGPVSVACAQGSHGGDVVRLAARLGISPTDILDFSSNANSLCDDLTRQVLAQTGYAHSHYPDSECTGLRHRIAGFEETQPERILAGNGSSELIYLAMHSLKPRRVLLIAPVFSEYVRACQACGADYRLFETDPYDGFDIPERHICRLHDAVTAYRPDMAVICAPSNPACTDYSRMDDILYALDCPHVLVDNSYLDFLWGTPAYSRHGMAAYAGCTRTETKVISLRSMTKFFYCTGVRLGYCHADEQTIERMNRCKTPWSVWHAAQQAGMAFLDRMDEYRLRLPAMRAEKTAFAGALRNTGIFDNNLVLEGANFVTARLQRPAKAATVYTELLQHGILVRLCDNIPGMPQGFIRMQVREKKAWSRLTAILGTLDAE	not soluble
MGSDKIHHHHHHMHEPVTRILVVATNAPVPGLVAAVKQGFHQRVDYLELAERFDNRHVDYGIVRPNRMLERLEGITRFDLRLASQVNQIVRSARYQAVISLSERVGIPLALMLPQTVRHLVIFHHGMSARKLQLIRTLHLQHRWDIVAAISEAEAKGMRQALGLPAERVVALHTPVDTAFYQPQPGRQQASVVQSLGLSHRDYPTLIRAMRRLPHIPCHLRVGSSWISGRSGHEREVLPANISLQPFVPPVQLRTCYQQSRIVVVPIKASTQWSAGCTSVQAAQAMGRPVIATRRPGLAEYVDEGRTALLVEPGDADGMADAIATLWENPDRAERMGQAGRQLMEERFTIEQWLDRVVELTHKMMDWPARRSTSTMTGSAV	not soluble
MMIIVGVDAGGTKTKAVAYDCEGNFIGEGSSGPGNYHNVGLTRAIENIKEAVKIAAKGEADVVGMGVAGLDSKFDWENFTPLASLIAPKVIIQHDGVIALFAETLGEPGVVVIAGTGSVVEGYNGKEFLRVGGRGWLLSDDGSAYWVGRKALRKVLKMMDGLENKTILYNKVLKTINVKDLDELVMWSYTSSCQIDLVASIAKAVDEAANEGDTVAMDILKQGAELLASQAVYLARKIGTNKVYLKGGMFRSNIYHKFFTLYLEKEGIISDLGKRSPEIGAVILAYKEVGCDIKKLISD	soluble
MFNFANFYQLIAQDTRLQPWLNVLPQQLTDWQNAEHGDFGRWLKALNKIPEGSPDQVDIKNSVTISNDTPFHEGELKKLENLLRTFHPWRKGPYTVHGIHIDTEWRSDWKWDRVLPHISPLKNRSVLDVGCGNGYHMWRMLGEGARLCVGIDPSHLFLIQFEAIRKLMGGDQRAHLLPLGIEQLPKLEAFDTVFSMGVLYHRRSPLDHLIQLKDQLVSGGELVLETLVIEGDENAVLVPTSRYAQMRNVYFFPSAKALKVWLELVGFEDVHIVDENVTSVDEQRTTDWMTHNSLPDYLDPNDPSKTVEGYPAPRRAVLVARKP	not soluble
SGRLHCTEDPVPEAVGGDMQQLNQLGAQQFSALTEVLFHFLTEQKEVERFLAQLSEFATTNQISLGSLRSIVKSLLLVPNGALKKSLTAKQVQADFITLGLSEEKATYFSEKWKQNTPTLARWAIGQTLMINQLIDMEWKFGVTSGSSELEKVGSIFLQLKLVVKKGNQTKNVYIELTLPQFYSFLHEMERVRTSMECFC	soluble
AECSVDIQGNDQMQFNTNAITVDKSCKQFTVNLSHPGNLPKNVMGHNWVLSTAADMQGVVTDGMASGLDKDYLKPDDSRVIAHTKLIGSGEKDSVTFDVSKLKEGEQYMFFCSELCGINHALMKGTLTLK	soluble
GMDELELRIRKAEKLVQDAKKEFEMGLYERCCSTAYYAMFHAAKAMLLGYGRDSKTHRGTIYLIWECREELGLSDDDCSKLSRAFDLREESDYGIYKEVSKDLAIKILKDAEIFVQKAKNAVNKNR	soluble
MGSPLPFRLTCVWAGEPSMKKAIIFDCEFLCLEGSQRRFWCAAHDPDPVIAQIGAVKLGLEGGFPLLETYKVLISPVDRHGRRYAIDPFFTRLTGITEENIEAEGVPLQDALSSFDSFSEGAQCWSWGKDELNMMAISTYVAGIQPPMPACRFDNAVRLLLAAGMPVEDLAKTPSNSLADYYGVAHPPLQGHDALGDALSVSYALQHLLRSGKLKPEEFTLAAAAALEHHHHHH	not soluble
MGSDKIHHHHHHMMAQFEYSTLAHPQDIQQLEHILEQCFISALGGEEAYINMIGVENFRIIRRLEQVAGGLATLDMGQWWGGQRVPMTGIAVVGIAPEYRGSGAAIALMQHTLKELYDRGIAISALYPAVQSLYRKVGYEQGGSWCIWEIATQNIQVREQPLPLELVASINHEVFHELYQQQARQTHGYLDRHPAIWERIIQPNDKEIVYTYLIGTKDQPQGYIIFTQERTNNGEILFVKDWVLTTVAAAQTFWSFLASHRSQIQQVRWKSSAIDSLTLLLPEQTAKIQTTSRWLLRIIDVVKALELRGYPPGIQAELHLEIQDNLLTENNGKFILSVANGRGEVTKGGKGELQLDIRELAPLYTSLFTPYHLQIAGKLNGTETAILTATQIFAGASPWMADFF	not soluble
MGSDKIHHHHHHMLVTELNIYPLKSARGIALKESAVSAEGLPGDRRAMLTDPSGHFITQRELPAIATVLARHEDGGMALSRERSGEIFARPSGQRMDVAVWKSIVSANIADDETNDTLSAWLGREVKLVFFDDAAKRIASLEWTGNETPVTFADGYQILVTTTASLAALNDNMRGNGEDAVGMERFRPNIVLETEEAWAEDRWAAIEIGGIRFDLVKPCARCIMTTQDQMTGSRDVPSPMKAMGRIRMSGDRRVPGPLFGWNVTPRGEGRLSVGDVARVVEERPEGWAIKRR	not soluble
MLQCGAKNVNPLERFVSSLPVAAVLPELLAALDGASQVLLSAPTGAGKSTWLPLQLLAHPGINGKIILLEPRRLAARNVAQRLAELLNEKPGDTVGYRMRAQNCVGPNTRLEVITEGVLTRMIQRDPELSGVGLVILDEFHERSLQADLALALLLDVQQGLRDDLKLLIMSA	not soluble
MEIKGESMQKSKFRRICVFCGSSQGKKSSYQDAAVDLGNELVSRNIDLVYGGGSIGLMGLVSQAVHDGGRHVIGIIPKTLMPRELTGETVGEVRAVADMHQRKAEMAKHSDAFIALPGGYGTLEELLEVITWAQLGIHDKPVGLLNVDGYYNSLLSFIDKAVEEGFISPTAREIIVSAPTAKELVKKLEEYAPCHERVATKLCWEMERIGYSSEE	soluble
AAGSINTLAQAEVRSRQISVSSPGSSTDINVKKIASIGDVCESMKQQLLVLVEWAKYIPAFCELPLDDQVALLRAHAGEHLLLGATKRSMMYKDILLLGNNYVIHRNSCEVEISRVANRVLDELVRPFQEIQIDDNEYACLKAIVFFDPDAKGLSDPVKIKNMRFQVQIGLEDYINDRQYDSRGRFGELLLLLPTLQSITWQMIEQIQFVKLFGMVKIDNLLQEMLLGG	soluble
GSHMGSLDETTYERLAEETLDSLAEFFEDLADKPYTFEDYDVSFGSGVLTVKLGGDLGTYVINKQTPNKQIWLSSPSSGPKRYDWTGKNWVYSHDGVSLHELLAAELTKALKTKLDLSSLAYSGKDA	soluble
MGSKAKKRVLLPTRPAPPTVEQILEDVRGAPAEDPVFTILAPEDPPVPFRMMEDAEAPGEQLYQQSRAYVAANQRLQQAGNVLRQRCELLQRAGEDLEREVAQMKQAALPAAEAASSG	soluble
MAHHHHHHMRSTSALYRYACDEEGCVSHSELVKLFHGIDVALGTDADATAKADDMTPAPPPPALADKMLLAYAPNLCFPTHLTLSQSYLGDAGLAAFMRMLPVLRWVRAIEARGVGAGPRTIEALSGALTAYLVEGCEEAAALPTVATMGDSVSGAEQLAGGRLPALELVDLRDNDGIYALSGQRLLTALRKRRLMLRAWCAAHAGVGDVVPALEVLVDLDALPPSTANALHEWNEGAANLKYQRMLARETHRWQEQVQVFTVRSAVSEAMKCSDSDMPGTAVAGAAAGQPVGEHVIFRLPSSADGDSQMTQMTCEVNACMSDFLTASCCLSSAKEAAPQPAHVVSGSSSLACPLPTLDGVRAALQVCIDFGADTLAILPHTNATLWYVASVWQQQQKEQHATTPSSSADTAEYVQLNYWEAKANVAALLRGLQANPALETELETSSQAGGVVIQRHLYRLRELYVQLDQNDAPHEDAICTARVAGVGATPLSEMVALYYRIVAALVTRRFSETHLPSMRACEQHISDVTEHVLNHLVVGEVSSEALEARIERLRSSTDAGSVPSGRPSGASDFSQSTRALPPVMAQCLYHLRRHQAEAEAWVKTYAGTAVAAPQPSSSSAAAAPIHAFHACHCADGLRRHMDECVAPTSSNEGLSSNLLPLPCTSCCYHALQAAQTLLQSPGEGSSGECELCARWAILEPVRRALPRELRMFFLDMVIRHRSRVRGGCAYVPSLDSVTGVGAPLPLSMVDWLAYTEHQSENWAKVLRVFGEWYRLRALESYGIAEARTLLRQPPT	not soluble
MSLPGNNSAKGTATGNATALWRNAQLATLNPAMDGIGAVENAVIAVRNGRIAFAGPESDLPDDLSTADETTDCGGRWITPALIDCHTHLVFGGNRAMEFEMRLNGATYEEIAKAGGGIVSSVRDTRALSDEVLVAQALPRLDTLLSEGVSTIEIKSGYGLDIETELKMLRVARRLETLRPVRIVTSYLAAHATPADYKGRNADYITDVVLPGLEKAHAEGLADAVDGFCEGIAFSVKEIDRVFAAAQQRGLPVKLHAEQLSNLGGAELAASYNALSADHLEYLDETGAKALAKAGTVAVLLPGAFYALREKQLPPVQALRDAGAEIALATDCNPGTSPLTSLLLTMNMGATLFRMTVEECLTATTRNAAKALGLLAETGTLEAGKSADFAIWDIERPAELVYRIGFNPLHARIFKGQKVSPEGHHHHHH	soluble
MLTPPSLSLYIHIPWCVQKCPYCDFNSHAQKGEIPEQEYLDALLQDLDRDIERYQLKGDPRLLHSIFIGGGTPSLISAEGIARLLQGVAERIAFKPEIEITMEANPGTIEAQRFAGYRTAGVTRISIGVQSFEPEKLARLGRIHGQQEAVRAAQLAHQIGLNSFNLDLMHGLPDQTPEQALADLDQAIALNPPHLSWYQLTIEPNTLFYSKPPKLPDEDALWDIFELGHQKLSDAGYVQYEISGYSKPGYQCQHNLNYWRFGDYLGIGCGAHGKLSFADGRIVRTTKTKHPRGYLAALNNLAKAYLDSEQLVADQDKPFEFFMNRFRLIEPCPKADFTATTGLTIDVIRPTLDWALSEGYLSEDDQHWQITEKGKLFLNDLLEAFMADEEELEHHHHHH	not soluble
MPITSTTPEPGIVAVTVDYPPVNAIPSKAWFDLADAVTAAGANSDTRAVILRAEGRGFNAGVDIKEMQRTEGFTALIDANRGCFAAFRAVYECAVPVIAAVNGFCVGGGIGLVGNSDVIVASEDATFGLPEVERGALGAATHLSRLVPQHLMRRLFFTAATVDAATLQHFGSVHEVVSRDQLDEAALRVARDIAAKDTRVIRAAKEALNFIDVQRVNASYRMEQGFTFELNLAGVADEHRDAFVKKS	not soluble
